# Measured values from patent US6140058, “Activation of p53 protein” (Newburn Ellis).
# B1: PG p53 consensus site (dsDNA)
# DNA 1: AGCTTAGACATGCCTAGACATGCCTA
# DNA 2: AGCTTAGGCATGTCTAGGCATGTCTA
# Columns and labels:
# p53 wild type [1] = molecular target: T1, p53 wild type (Homo sapiens, UniProt P04637 P04637:1-393); test: EMSA; casein kinase II-activated, 1 mM ATP; details: tags: bacterial expression, Fraction III; chain copies: 4 inferred; label: 32P; Hind III compatible overhangs
# Protocol: (§1) In the first stage, wild type p53 (60 ng) or mutant forms of p53 (180 ng) was incubated with ATP and the indicated activating protein at 30° C. for 30 minutes. In the second stage, the consensus site oligonucleotide was added to the reactions to assay for sequence-specific DNA binding. (A) PAb421; lane 1, 3 and 5 (p53, p53 His 273, and p53 Lys285, respectively), lanes 2, 4 and 6 (PAb421 and p53, p53 His273, and p53 Lys285, respectively). (B) DnaK; lanes 1, 5, and 9 (p53, p53 His273, and p53 Lys285, respectively), lanes 2, 6 and 10 (DO-1 and p53, p53 His273, and p53 Lys285, respectively), lanes 3, 7 and 11 (DnaK and p53, p53 His273, and p53 Lys285, respectively), lanes 4, 8 and 12 (DnaK and p53, p53 His273, and p53 Lys285, respectively, followed by DO-1). […] PAb421-activated p53 (solid bar), DnaK-activated p53 (open bar), casein kinase II-activated p53 (stippled bar).
# p53 wild type [2] = molecular target: T1, p53 wild type; test: EMSA; DnaK-activated, 1 mM ATP; details: tags: bacterial expression, Fraction III; chain copies: 4 inferred; label: 32P; Hind III compatible overhangs
# Protocol: as §1
# T1 sequence (P04637 whole entry, one chain of several): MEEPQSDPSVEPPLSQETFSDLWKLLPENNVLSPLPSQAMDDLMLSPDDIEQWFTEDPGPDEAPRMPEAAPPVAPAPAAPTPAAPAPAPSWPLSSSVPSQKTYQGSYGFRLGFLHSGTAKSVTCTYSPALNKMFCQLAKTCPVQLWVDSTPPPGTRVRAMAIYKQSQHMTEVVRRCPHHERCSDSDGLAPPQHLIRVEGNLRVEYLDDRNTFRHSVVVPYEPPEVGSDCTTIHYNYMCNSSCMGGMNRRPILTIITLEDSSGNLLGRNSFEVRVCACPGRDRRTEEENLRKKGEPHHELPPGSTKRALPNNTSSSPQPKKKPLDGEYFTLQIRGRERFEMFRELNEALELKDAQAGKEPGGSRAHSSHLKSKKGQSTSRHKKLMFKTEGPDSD
binder,measurement,setting,value
B1,activity,p53 wild type [1],64 fmol DNA bound/ug protein
same,activity,p53 wild type [2],57 fmol DNA bound/ug protein
